Experimental findings from publication PMC9284671 (Structure (London, England : 1993), 2022) are described below.

The target in the test is T1, short SARS-CoV-2 peptide (10 residues) of the ITC (SARS-CoV-2).
T1 chain: FKEELDKYFK
Briefly: ITC. In general terms: In ITC the heat of successive injections is recorded.

In general, Kd refers to the equilibrium constant for the complex coming apart.

B1: WS6 (monoclonal antibody, IgG) (antibody, V domains shown)
VH: EVQFQQSGTVLARPGASVKMSCKASGYTFTNYWIHWVKQRPGQGLEYIGGTYPGNGDTTYNQKFKGKAKVTAVTPTSTAYMDLSSLTNEDSAVYYCTRTGSYFDYWGQGTTLTVSS
VL: QIVLTQSPAIMSASPGEKVTISCSATSSVSYIYWYQQRPGSSPKPWIYRTSNLASGVPVRFSGSGSGTSYSLTISNMEAEDAATYYCQQYQSYPPTFGAGTKLELK
With B1, the Kd amounted to 0.022 µM.
